Reference: patent US20230212319A1, “NOVEL ANTIGEN BINDING DOMAINS AND SYNTHETIC ANTIGEN RECEPTORS INCORPORATING THE SAME” (University of Southern California, priority 2020, published 2023)
Numbering of substitutions follows the chain as printed.

B1: 10380 (protein)
chain: MALPVTALLLPLALLLHAARPEVQLVESGGGLVQPGGSLRLSCAASGFTFTTYWMHWVRQAPGKGLEWVGYIRPSTGYTEYNQKFKDRFTISADTSKNTAYLQMNSLRAEDTAVYYCARSRWLLDYWGQGTLVTVSGGGGSGGGGSGGGGSDIQMTQSPSSLSASVGDRVTITCKSSQSVLYSSNQKNYLAWFQQKPGKAPKLLIYWASTRESGVPSRFSGSGSGTDFTLTISSLQPEDFATYFCHQYLSSYTFGQGTKVEIKRTREQKLISEEDLAKPTTTPAPRPPTPAPTIASQPLSLRPEACRPAAGGAVHTRGLDFACDIYIWAPLAGTCGVLLLSLVITLYCKRGRKKLLYIFKQPFMRPVQTTQEEDGCSCRFPEEEEGGCELRVKFSRSADAPAYQQGQNQLYNELNLGRREEYDVLDKRRGRDPEMGGKPRRKNPQEGLYNELQKDKMAEAYSEIGMKGERRRGKGHDGLYQGLSTATKDTYDALHMQALPPR
modifications: Synthetic Polynucloetide
B2: 10522 (protein)
chain: MALPVTALLLPLALLLHAARPDIQMTQSPSSLSASVGDRVTITCRASQDISNYLNWYQQKPGKAPKLLIYYTSRLHSGVPSRFSGSGSGTDFTLTISSLQPEDFATYYCQQGNTLPYTFGQGTKVEIKRLEDLKNVFPPEVAVFEPSEAEISHTQKATLVCLATGFYPDHVELSWWVNGKEVHSGVCTDPQPLKEQPALNDSRYCLSSRLRVSATFWQNPRNHFRCQVQFYGLSENDEWTQDRAKPVTQIVSAEAWGRADCGFTSESYQQGVLSATILYEILLGKATLYAVLVSALVLMAMVKRKDSRGRAKRSGSGATNFSLLKQAGDVEENPGPTSMDWIWRILFLVGAATGAHSFEEVQLVESGGGLVQPGGSLRLSCAASGYTFSDYFMSWVRQAPGKGLEWVATISNGGTYTYYPDSVKGRFTISRDNSKNTLYLQMNSLRAEDTAVYYCARFDGYIFDYWGQGTLVTVSSTRIQNPDPAVYQLRDSKSSDKSVCLFTDFDSQTNVSQSKDSDVYITDKCVLDMRSMDFKSNSAVAWSNKSDFACANAFNNSIIPEDTFFPSPESSCDVKLVEKSFETDTNLNFQNLSVIGFRILLLKVAGFNLLMTLRLWSS
modifications: Synthetic Polynucloetide
B3: 10660 (protein)
chain: B2 chain with Y117W, Y386F
modifications: Synthetic Polynucloetide
B4: 10591 (protein)
chain: B2 chain with N52S, Y386F
modifications: Synthetic Polynucloetide
B5: 22151 (protein)
chain: MALPVTALLLPLALLLHAARPMLPAPKNLVVSRITEDSARLSWTAPDAAFDSFPIRYIETLIWGEAIWLDVPGSERSYDLTGLKPGTEYAVVITGVKGGRFSSPLVASFTTGTGGGGSGGGGSGGGGSEFSYVLTQPPSVSVAPGQTARITCGGNNIGGKSVHWYQQPPGQAPVVVVYDDSDRPSGIPERFSGSNSGNTATLTISRVEAGDEAVYYCQVWDSSSDHVVFGGGTKLTVLLEDLKNVFPPEVAVFEPSEAEISHTQKATLVCLATGFYPDHVELSWWVNGKEVHSGVCTDPQPLKEQPALNDSRYCLSSRLRVSATFWQNPRNHFRCQVQFYGLSENDEWTQDRAKPVTQIVSAEAWGRADCGFTSESYQQGVLSATILYEILLGKATLYAVLVSALVLMAMVKRKDSRGRAKRSGSGATNFSLLKQAGDVEENPGPTSMDWIWRILFLVGAATGAHSFEQLQLQESGPGLVKPSETLSLTCTVSGGSISSSSYFWGWIRQPPGKGLEWIGSIYYSGITYYNPSLKSRVTISVDTSKNQFSLKLSSVTAADTAVYYCARHDGAVAGLFDYWGQGTLVTVSSATRIQNPDPAVYQLRDSKSSDKSVCLFTDFDSQTNVSQSKDSDVYITDKCVLDMRSMDFKSNSAVAWSNKSDFACANAFNNSIIPEDTFFPSPESSCDVKLVEKSFETDTNLNFQNLSVIGFRILLLKVAGFNLLMTLRLWSSRAKRSGSGVKQTLNFDLLKLAGDVESNPGPSRGHMTEYKPTVRLATRDDVPRAVRTLAAAFADYPATRHTVDPDRHIERVTELQELFLTRVGLDIGKVWVADDGAAVAVWTTPESVEAGAVFAEIGPRMAELSGSRLAAQQQMEGLLAPHRPKEPAWFLATVGVSPDHQGKGLGSAVVLPGVEAAERAGVPAFLETSAPRNLPFYERLGFTVTADVEVPEGPRTWCMTRKPGA
B6: 10311 (protein)
chain: MALPVTALLLPLALLLHAARPEVQLVESGGGLVQPGGSLRLSCAASGYTFTSYWLHWVRQAPGKGLEWVGYIRPSTGYTEYNQKFKDRFTISADTSKNTAYLQMNSLRAEDTAVYYCARSRWLLDYWGQGTLVTVSSGGGGSGGGGSGGGGSDIQMTQSPSSLSASVGDRVTITCKSSQSLLYSSNQKNYLAWFQQKPGKAPKLLIYWASTRESGVPSRFSGSGSGTDFTLTISSLQPEDFATYFCHQYLSSYTFGQGTKVEIKRTREQKLISEEDLAKPTTTPAPRPPTPAPTIASQPLSLRPEACRPAAGGAVHTRGLDFACDIYIWAPLAGTCGVLLLSLVITLYCKRGRKKLLYIFKQPFMRPVQTTQEEDGCSCRFPEEEEGGCELRVKFSRSADAPAYQQGQNQLYNELNLGRREEYDVLDKRRGRDPEMGGKPRRKNPQEGLYNELQKDKMAEAYSEIGMKGERRRGKGHDGLYQGLSTATKDTYDALHMQALPPR
modifications: Synthetic Polynucloetide
B7: 22150 (protein)
chain: MALPVTALLLPLALLLHAARPACEVQLLESGGGLIQPGGSLRLSCAASGFTFSSHAMTWVRQAPGKGLEWVSAISGSGDYTHYADSVKGRFTISRDNSKNTVYLQMNSLRAEDSAVYYCAKDEDGGSLLGHRGQGTLVTVSSGTGGGGSGGGGSGGGGSEFDVVMTQSPSSLSASVGDRVTITCMASEDIYIRLAWYQQKPGNAPKLLIYAATSLETGVPSRFSGSGSGTDFTLTISSLQPEDFATYYCQQYWSSPWTFGGGTKVEIKLEADVSPKPTIFLPSIAETKLQKAGTYLCLLEKFFPDVIKIHWQEKKSNTILGSQEGNTMKTNDTYMKFSWLTVPEKSLDKEHRCIVRHENNKNGVDQEIIFPPIKTDVITMDPKDNCSKDANDTLLLQLTNTSAYYMYLLLLLKSVVYFAIITCCLLRRTAFCCNGEKSRAKRSGSGATNFSLLKQAGDVEENPGPTSMDWIWRILFLVGAATGAHSGPQVQLQESGGGLAQAGGSLRLSCAASGRTFSMGWFRQAPGKEREFVAAITYSGGSPYYASSVRGRFTISRDNAKNTVYLQMNSLKPEDTAVYYCAANPTYGSDWNAENWGQGTQVTVSSGSGGGGSGGGGSGGGGSFEQVQLQESGPGLVKPSQTLSLTCTVSGYSITSDYTWNWIRQPPGNGLEWIGYITYSGSTSYNPSLKSRVLISVDTSKNQVSLKLSSVTAADTAVYYCARLGRRYTMDYWGQGTTVTVSSTRPHTKPSVFVMKNGTNVACLVKEFYPKDIRINLVSSKKITEFDPAIVISPSGKYNAVKLGKYEDSNSVTCSVQHDNKTVHSTDFEVKTDSTDHVKPKETENTKQPSKSCHKPKAIVHTEKVNMMSLTVLGLRMLFAKTVAVNFLLTAKLFFLRAKRSGSGVKQTLNFDLLKLAGDVESNPGPSRGHMTEYKPTVRLATRDDVPRAVRTLAAAFADYPATRHTVDPDRHIERVTELQELFLTRVGLDIGKVWVADDGAAVAVWTTPESVEAGAVFAEIGPRMAELSGSRLAAQQQMEGLLAPHRPKEPAWFLATVGVSPDHQGKGLGSAVVLPGVEAAERAGVPAFLETSAPRNLPFYERLGFTVTADVEVPEGPRTWCMTRKPGA

Experiments:
SKOV3-Luc cells = assay: SKOV3 xenograft in NSG mice; settings: for tumor inhibition / protection, SKOV3 xenograft: 1 × 10^6 SKOV3-Luc s.c., a week later 3 × 10^6 SAR-T i.v.; for survival, SKOV3 xenograft: mouse, in vivo
U266 cells = assay: JNG NFAT-GFP induction on co-culture with U266; type: cell-based
L363 cells = assay: JNG assay, co-culture with L363 cells; type: cell-based; settings: co-culture with L363
Outline: (§1)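 Read-out is NFAT-driven GFP measured by flow cytometry after ~4–18 h co-culture of SAR-expressing JNG cells with target cells (E:T about 1:2). SARs were introduced by lentiviral spinfection and selected with puromycin or blasticidin when possible; scores (+/- to 5+ ≈ 5–50% GFP+) are relative to parental JNG cells.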

RAJI cells = assay: JNG assay, co-culture with RAJI cells; type: cell-based; settings: JNG cells expressing construct, co-culture with Raji
Outline: as §1

Row | Molecule | tumor inhibition / protection, SKOV3 xenograft (SKOV3-Luc cells) | survival, SKOV3 xenograft (SKOV3-Luc cells) | NFAT-GFP ASSAY: U266 (U266 cells) | NFAT-GFP ASSAY: L363 (L363 cells) | NFAT-GFP ASSAY: Raji (RAJI cells)
1 | B1 | weak protection | – | – | – | –
2 | B2 | tumor inhibition | improvement in survival | – | – | –
3 | B3 | tumor inhibition | improvement in survival | – | – | –
4 | B4 | tumor inhibition | improvement in survival | – | – | –
5 | B5 | – | – | 4+ (refer to approximately 5%, 10%, 20%, 30%, 40% and 50% GFP positive cells) | 2+ (refer to approximately 5%, 10%, 20%, 30%, 40% and 50% GFP positive cells) | –
6 | B6 | weak protection | – | – | – | –
7 | B7 | – | – | + (refer to approximately 5%, 10%, 20%, 30%, 40% and 50% GFP positive cells) | +/- (refer to approximately 5%, 10%, 20%, 30%, 40% and 50% GFP positive cells) | + (refer to approximately 5%, 10%, 20%, 30%, 40% and 50% GFP positive cells)
